# Assay results taken from patent publication US9993536B2, “Peptides and combination of peptides and scaffolds for use in immunotherapy against renal cell carcinoma (RCC) and other cancers” (immatics biotechnologies GmbH, priority 2015, dated 2018).
# Test system: CD8+ T cells
# Assay: In vitro T-cell priming assay with aAPCs loaded with peptide/MHC complexes and anti-CD28 (immunogenicity, multimer staining)
# Format: cell-based, human
# Details: healthy HLA-A*02+ donors; share of positive donors
# From the text: In order to obtain information regarding the immunogenicity of the TUMAPs of the present invention, the inventors performed investigations using an in vitro T-cell priming assay based on repeated stimulations of CD8+ T cells with artificial antigen presenting cells (aAPCs) loaded with peptide/MHC complexes and anti-CD28 antibody.
# In order to perform in vitro stimulations by artificial antigen presenting cells loaded with peptide-MHC complex (pMHC) and anti-CD28 antibody, the inventors first isolated CD8+ T cells from fresh HLA-A*02 leukapheresis products via positive selection using CD8 microbeads (Miltenyi Biotec, Bergisch-Gladbach, Germany) of healthy donors obtained from the University clinics Mannheim, Germany, after informed consent.
# PBMCs and isolated CD8+ lymphocytes were incubated in T-cell medium (TCM) until use consisting of RPMI-Glutamax (Invitrogen, Karlsruhe, Germany) supplemented with 10% heat inactivated human AB serum (PAN-Biotech, Aidenbach, Germany), 100 U/ml Penicillin/100 μg/ml Streptomycin (Cambrex, Cologne, Germany), 1 mM sodium pyruvate (CC Pro, Oberdorla, Germany), 20 μg/ml Gentamycin (Cambrex). 2.5 ng/ml IL-7 (PromoCell, Heidelberg, Germany) and 10 U/ml IL-2 (Novartis Pharma, Nürnberg, Germany) were also added to the TCM at this step.
# Generation of pMHC/anti-CD28 coated beads, T-cell stimulations and readout was performed in a highly defined in vitro system using four different pMHC molecules per stimulation condition and 8 different pMHC molecules per readout condition.
# The purified co-stimulatory mouse IgG2a anti human CD28 Ab 9.3 (Jung et al., 1987) was chemically biotinylated using Sulfo-N-hydroxysuccinimidobiotin as recommended by the manufacturer (Perbio, Bonn, Germany). Beads used were 5.6 μm diameter streptavidin coated polystyrene particles (Bangs Laboratories, Illinois, USA).
# pMHC used for positive and negative control stimulations were A*0201/MLA-001 (peptide […] (SEQ ID NO. 152) from modified Melan-A/MART-1) and A*0201/DDX5-001 ([…] from DDX5 (SEQ ID NO. 153)), respectively.
# 800.000 beads/200 μl were coated in 96-well plates in the presence of 4×12.5 ng different biotin-pMHC, washed and 600 ng biotin anti-CD28 were added subsequently in a volume of 200 μl. Stimulations were initiated in 96-well plates by co-incubating […] CD8+ T cells with 2×10^5 washed coated beads in 200 μl TCM supplemented with 5 ng/ml IL-12 (PromoCell) for 3 days at 37° C. Half of the medium was then exchanged by fresh TCM supplemented with 80 U/ml IL-2 and incubating was continued for 4 days at 37° C. This stimulation cycle was performed for a total of three times. For the pMHC multimer readout using 8 different pMHC molecules per condition, a two-dimensional combinatorial coding approach was used as previously described (Andersen et al., 2012) with minor modifications encompassing coupling to 5 different fluorochromes. Finally, multimeric analyses were performed by staining the cells with Live/dead near IR dye (Invitrogen, Karlsruhe, Germany), CD8-FITC antibody clone SK1 (BD, Heidelberg, Germany) and fluorescent pMHC multimers. For analysis, a BD LSRII SORP cytometer equipped with appropriate lasers and filters was used. Peptide specific cells were calculated as percentage of total CD8+ cells. Evaluation of multimeric analysis was done using the FlowJo software (Tree Star, Oregon, USA). In vitro priming of specific multimer+ CD8+ lymphocytes was detected by comparing to negative control stimulations.
row,Substance,in vitro immunogenicity: donors
1,123 (YVDPVITSI; listed as Homo sapiens) [compound 123],++++ (>=70% = ++++)
2,127 (VLAPLFVYL; listed as Homo sapiens) [compound 127],++++ (>=70% = ++++)
3,143 (ALFVRLLALA; listed as Homo sapiens) [compound 143],+++ (50%-69% = +++)

# Same assay, conditions: healthy HLA-A*02+ donors; share of positive wells
row,Substance,in vitro immunogenicity: wells
1,123 (YVDPVITSI; listed as Homo sapiens) [compound 123],+ (<20% = +)
2,127 (VLAPLFVYL; listed as Homo sapiens) [compound 127],++ (20%-49% = ++)
3,143 (ALFVRLLALA; listed as Homo sapiens) [compound 143],+ (<20% = +)

# Same assay, conditions: in vitro immunogenicity, HLA class I peptides; percentage of positive wells
row,Substance,Wells positive [%]
1,1 (ALIVSLPYL; listed as Homo sapiens) [compound 1],+ (<20% = +)

# Biological target: HLA-A*02:01 (Homo sapiens, UniProt P04439, D140Y/D185E/D98H/E176V/E277Q/G131W/G231S/I119V/I121R/I166T/I218V/L300P/L318F/N151K/N90K/P208A/P217A/Q86G/Q94H/R138H/R169H/T345S)
# Assay: MHC binding assay (UV-ligand exchange, beta2m ELISA)
# Details: peptide exchange yield, HLA-A*02:01, UV-ligand exchange
# From the text: Candidate peptides for T cell based therapies according to the present invention were further tested for their MHC binding capacity (affinity). The individual peptide-MHC complexes were produced by UV-ligand exchange, where a UV-sensitive peptide is cleaved upon UV-irradiation, and exchanged with the peptide of interest as analyzed. Only peptide candidates that can effectively bind and stabilize the peptide-receptive MHC molecules prevent dissociation of the MHC complexes. To determine the yield of the exchange reaction, an ELISA was performed based on the detection of the light chain (β2m) of stabilized MHC complexes. The assay was performed as generally described in Rodenko et al. (Rodenko et al., 2006).
# 96 well MAXISorp plates (NUNC) were coated over night with 2 ug/ml streptavidin in PBS at room temperature, washed 4× and blocked for 1 h at 37° C. in 2% BSA containing blocking buffer. Refolded HLA-A*02:01/MLA-001 monomers served as standards, covering the range of 15-500 ng/ml. Peptide-MHC monomers of the UV-exchange reaction were diluted 100 fold in blocking buffer. Samples were incubated for 1 h at 37° C., washed four times, incubated with 2 ug/ml HRP conjugated anti-β2m for 1 h at 37° C., washed again and detected with TMB solution that is stopped with […]. Absorption was measured at 450 nm. Candidate peptides that show a high exchange yield (preferably higher than 50%, most preferred higher than 75%) are generally preferred for a generation and production of antibodies or fragments thereof, and/or T cell receptors or fragments thereof, as they show sufficient avidity to the MHC molecules and prevent dissociation of the MHC complexes.
row,Substance,Peptide exchange (MHC class I binding score)
1,1 (ALIVSLPYL; listed as Homo sapiens) [compound 1],+++ (≥50 = +++)
2,69 (ILADLLPSL; listed as Homo sapiens) [compound 69],++ (≥20% = ++)
3,70 (SLTALRLLL; listed as Homo sapiens) [compound 70],++ (≥20% = ++)
4,71 (ALDGHLYAV; listed as Homo sapiens) [compound 71],+++ (≥50 = +++)
5,72 (YSLEKVFGI; listed as Homo sapiens) [compound 72],++ (≥20% = ++)
6,73 (GLDGIPFTV; listed as Homo sapiens) [compound 73],+++ (≥50 = +++)
7,74 (GLFHKQVTV; listed as Homo sapiens) [compound 74],+++ (≥50 = +++)
8,75 (FLIKSINLV; listed as Homo sapiens) [compound 75],+++ (≥50 = +++)
9,76 (VLADDHLIEV; listed as Homo sapiens) [compound 76],++ (≥20% = ++)
10,77 (SLIKHKIML; listed as Homo sapiens) [compound 77],++ (≥20% = ++)
11,78 (ALLDTVVQA; listed as Homo sapiens) [compound 78],++ (≥20% = ++)
12,79 (ALADIVWRA; listed as Homo sapiens) [compound 79],+++ (≥50 = +++)
13,80 (KLASMLETL; listed as Homo sapiens) [compound 80],+++ (≥50 = +++)
14,81 (SLLPALPKL; listed as Homo sapiens) [compound 81],++ (≥20% = ++)
15,82 (SLLQATDFMSL; listed as Homo sapiens) [compound 82],+++ (≥50 = +++)
16,83 (IQWSIVPEV; listed as Homo sapiens) [compound 83],+++ (≥50 = +++)
17,84 (YLMDEGAHL; listed as Homo sapiens) [compound 84],++ (≥20% = ++)
18,85 (FVMSEIRTV; listed as Homo sapiens) [compound 85],+++ (≥50 = +++)
19,86 (GLLQGKLALL; listed as Homo sapiens) [compound 86],++ (≥20% = ++)
20,88 (TLAELHISL; listed as Homo sapiens) [compound 88],++ (≥20% = ++)
21,89 (SLLLAVTEV; listed as Homo sapiens) [compound 89],++ (≥20% = ++)
22,90 (FTLEKNFVI; listed as Homo sapiens) [compound 90],++ (≥20% = ++)

row,Substance,Peptide exchange (MHC class I binding score)
1,91 (MLLSSLVSL; listed as Homo sapiens) [compound 91],++ (≥20% = ++)
2,92 (FLFRDILEL; listed as Homo sapiens) [compound 92],+++ (≥50 = +++)
3,93 (GVMAGDIYSV; listed as Homo sapiens) [compound 93],++++ (≥75% = ++++)
4,94 (ILHHKVYDL; listed as Homo sapiens) [compound 94],++ (≥20% = ++)
5,96 (TLAETLVNL; listed as Homo sapiens) [compound 96],+++ (≥50 = +++)
6,97 (TLISELVQA; listed as Homo sapiens) [compound 97],++ (≥20% = ++)
7,99 (GLAPHLEQI; listed as Homo sapiens) [compound 99],++ (≥20% = ++)
8,100 (KLNVAPLAV; listed as Homo sapiens) [compound 100],++ (≥20% = ++)
9,101 (HIYDKAFITV; listed as Homo sapiens) [compound 101],++ (≥20% = ++)
10,102 (LLFDVHTTL; listed as Homo sapiens) [compound 102],+++ (≥50 = +++)
11,103 (KLQDGLLHI; listed as Homo sapiens) [compound 103],++ (≥20% = ++)
12,104 (ALFEGVVRQI; listed as Homo sapiens) [compound 104],+++ (≥50 = +++)
13,105 (ALADLDELLIRA; listed as Homo sapiens) [compound 105],+++ (≥50 = +++)
14,106 (VLMDLKALL; listed as Homo sapiens) [compound 106],+++ (≥50 = +++)
15,107 (VLMDLKALLL; listed as Homo sapiens) [compound 107],+++ (≥50 = +++)
16,108 (VLISVLQAI; listed as Homo sapiens) [compound 108],++ (≥20% = ++)
17,109 (YLWSRVEKL; listed as Homo sapiens) [compound 109],++++ (≥75% = ++++)
18,110 (LLDLHSYLL; listed as Homo sapiens) [compound 110],++ (≥20% = ++)
19,111 (TLLETEMLL; listed as Homo sapiens) [compound 111],++ (≥20% = ++)
20,112 (LLFDHLEPIEL; listed as Homo sapiens) [compound 112],+++ (≥50 = +++)
21,113 (SLFDWNVKL; listed as Homo sapiens) [compound 113],+++ (≥50 = +++)
22,114 (ALAVNISAA; listed as Homo sapiens) [compound 114],+++ (≥50 = +++)
